{
  "source": "paper PMC10940300",
  "target": "preF^C (soluble RSV F A2 prefusion F in the Cav1 background with V185Y, K226Y, N428Y, L512V, L513V and Y519F, before crosslinking) (respiratory syncytial virus (RSV F A2) | not stated) (UniProt P03420)",
  "test": "cross-linking; dityrosine crosslinking reaction (Arthromyces ramosus peroxidase and H2O2) of the purified protein; reducing SDS-PAGE (TCEP, 95 °C), Coomassie stain, gel shift from monomer to trimer",
  "data": [
    {"substance": "preF^C (soluble RSV F A2 prefusion F in the Cav1 background with V185Y, K226Y, N428Y, L512V, L513V and Y519F, before crosslinking) (from UniProt P03420 26-109) (natural protein)", "values": [
      {"measurement": "stoichiometry N", "result": 3}
    ]}
  ]
}
